Results on one sequence are retold here after US20190375786A1, “STABLE PEPTIDES AND METHODS OF USE THEREOF” (Fred Hutchinson Cancer Research Center, priority 2016, published 2019).

Data set [1] in a line: Circular dichroism thermal stability, heating 20° C. to 95° C. The data set is classed as physicochemical. The note with it: 10 mM phosphate buffer pH 7.4; heated 20° C. to 95° C. On the procedure: Protein secondary structures were assessed using Circular Dichrosim (CD). CD spectra were measured with a Jasco J-720W spectropolarimeter using a 1.0 mm path length cell. Protein samples in 10 mM phosphate buffer (pH=7.4) were at 25-30 μM protein concentration. Samples were analyzed at wavelength ranges of […]. Data were expressed in terms of relative ellipticity [θ]; (mdeg). To determine thermal stability of proteins, samples were subjected to incremental increase in temperature at a ramp of 2° C./min from 20° C. to 95° C. Stability and protein unfolding were monitored at 220 and 215 for α-helix and β-sheet secondary structures, respectively. Data are expressed in terms of relative ellipticity [θ], reported in mdeg. For SEQ ID NO: 43 and its point mutant variants, no changes to the α-helix-dominated structure were observed upon heating up to 95° C. […] Additionally, protein melting temperature (Tm) determination was performed by monitoring protein unfolding using SYPRO Orange dye (Molecular Probes). In brief, 0.1 mg/mL protein sample in 20 μL total volume PBS buffer were mixed with 24, of 10× SYPRO Orange dye. Dye intercalation into the hydrophobic protein core following protein unfolding was assayed using the C1000 Touch Thermal Cycler with CFX96 Deep Well Real-Time System (BioRad). Samples were heated from 20° C. to 95° C. with stepwise increments of 0.5° C. per minute and a 5 sec hold step for every point, followed by fluorescence reading. Tm were calculated by analyzing the derivatives of Relative florescence Units (RFU). FIG. 17D illustrates this SYPRO Orange melting assay of Peptides.

Data set [2] is described as follows: Resistance to reduction by reduced glutathione (GSH), HPLC. The following applies: 10 mM reduced glutathione (GSH); HPLC vs non-reduced peptide. It is filed as physicochemical. The procedure, abridged:
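Peptide stability under reducing conditions was tested in 10 mM DTT and in 10 mM GSH, with analysis by HPLC.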

Consider “GSPDEYIERAKECCKKQDIQCCLRIFDESKDPNVMLICLFCW [SEQ ID NO: 43]”, for which the “CD secondary structure signature before (Pre) and after (Post) incubation at 95° C.” value in data set [1] is “identical”. Further, the “resistance to GSH reducing conditions” value in data set [2] is on record as “resistant”.
